Here are results for 72 sequences from the supplement of paper PMC10567573.

This data set is described as follows: protein stability index of a GFP-peptide fusion (GPS, HEK-293T) (PSI 1-6); higher = more stable.
The mark [1] stands for this setting: treatment: DMSO, c terminus: a fixed tail appended.
Setting [2] is: treatment: MLN4924 1 uM, 8 h, c terminus: a fixed tail appended.

± gives the standard deviation.
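Also: 24-mer peptide tiles fused after GFP, lentivirally expressed, FACS-sorted into six equal bins by GFP/DsRed ratio, decoded by Illumina sequencing, PSI is the read-weighted mean bin number.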

Consider LSVSNNQEPDFIDDIEEKTPISNE [KMT2E], for which the protein stability index came out at 4.69 ± 0.37 under setting [1] and 4.75 ± 0.21 under setting [2].
Take DYAHGFGNISGEFWLGNEALHSLT [TNXB]: the protein stability index is, setting by setting: under setting [1], 2.43 ± 0.73; under setting [2], 2.82 ± 0.57.
Regarding LFILSTLVVDYIDEGRLVLEFSLL [SOAT1], the protein stability index under setting [1] was 3.28 ± 0.57 and the protein stability index under setting [2] turned out to be 2.88 ± 0.96.
For the sequence VFDLPESLGGIRACTLTVFPPEET [KLHL13], the protein stability index is, setting by setting: under setting [1], 3.33 ± 0.41; under setting [2], 3.39 ± 0.37.
ERLKVMCEEALCSNLSVENVADTL [SPOPL] yielded a protein stability index under setting [1] of 3.84 ± 0.36 and a protein stability index under setting [2] of 4.09 ± 0.39.
As for MMRMFSENLAHHLEIDSGVITLDP [TRIM15], the protein stability index under setting [1] is 2.52 ± 0.16 and the protein stability index under setting [2] worked out at 2.69 ± 0.37.
The corresponding values for DFGSNCRFSHMSERDLQELSIQVE [ZMAT5] are 3.05 ± 0.49 and 2.91 ± 0.28.
The corresponding values for RVQKTSKELEDMNQKLFDLRGKFK [TNNI2] are 3.94 ± 0.25 and 4.03 ± 0.3.
The corresponding values for YAVENEHMNRLQSQRAMLLQGTES [VTI1B] are 3.94 ± 0.31 and 4.1 ± 0.2.
AAGGDGELGSPLRRSISSSRSENV [PSD2]: the protein stability index is, setting by setting: under setting [1], 5.07 ± 0.11; under setting [2], 5.1 ± 0.19.
For AMAMGTPSTTERISTSGQAGTSSH [PXN], in that order: 4.86 ± 0.31 and 4.98 ± 0.1.
The corresponding values for CSSPSVVASLPLDQSDEGSSSQKE [MAGEA10] are 5.36 ± 0.74 and 5.49 ± 0.1.
For MLELRHRGSCPGPREAVSPPHREG [CDS1], in that order: 4.26 ± 0.29 and 4.39 ± 0.29.
Consider RADAHLGSSSVALPKEASDGTGAS [TOR1AIP2], for which the protein stability index worked out at 5.5 ± 0.24 under setting [1] and 5.33 ± 0.12 under setting [2].
For NQACKLLSDDYEQVRSAAVQLIWV [INTS4], in that order: 2.62 ± 0.29 and 2.59 ± 0.36.
In the case of VLFNEKIREQIKKYRRHFLRFCHN [EIF5], the protein stability index is, setting by setting: under setting [1], 2.82 ± 0.29; under setting [2], 3 ± 0.65.
For PRPPSNPPARGTLKTSNLPEELRK [TRAF3IP2], in that order: 4.71 ± 0.2 and 4.79 ± 0.3.
On to LQHTQELFPQWHLPIKIAAIIASL [STEAP1], for which the protein stability index reads like this: under setting [1], 2.16 ± 0.35; under setting [2], 2.1 ± 0.24.
The corresponding values for EKAVANFDRTEWVQIRRLEAAGES [ZC2HC1C] are 4.49 ± 0.12 and 4.48 ± 0.26.
Turning to KPLLGSAVLGLLLVLAAVVAWCYY [MYORG], the protein stability index runs as follows: under setting [1], 2.11 ± 0.4; under setting [2], 2.25 ± 0.24.
For SNIKFCSFHPLQYIGFYGKETTNT [PDS5B], in that order: 2.1 ± 0.47 and 2.29 ± 0.16.
For HTRSLNSIIHQMEKFSSSLHELSS [FBF1], in that order: 2.97 ± 0.21 and 3.06 ± 0.48.
Take AAAGEQASGAEAEPGPAGPPPPPS [BTBD1]: the protein stability index runs as follows: under setting [1], 5.446 ± 0.021; under setting [2], 5.52 ± 0.19.
For ATGEVLGQFYLDLYPREGKYNHAA [NLN], in that order: 2.91 ± 0.83 and 2.73 ± 0.27.
For AQRVKEVLPHVPLGVIQRDLAKTG [AUP1], in that order: 3.81 ± 0.42 and 3.85 ± 0.17.
LCMDWCKDKRRIVSSSQDGKVIVW [GNB5]: the protein stability index by setting is: under setting [1], 2.17 ± 0.14; under setting [2], 2.33 ± 0.16.
On to KEGDCAPEEKIWEELSVLEVFEGR [MAGEA6], for which the protein stability index under setting [1] came out at 4.96 ± 0.16 and the protein stability index under setting [2] was determined as 4.87 ± 0.47.
Consider VPLQLSAHWQCGATLTQVSVEYGY [FCHO1], for which the protein stability index is 2.76 ± 0.76 under setting [1] and 2.6 ± 0.67 under setting [2].
On to LGSWLVPFAYLTVLDLSKSLSAAL [POMT2], for which the protein stability index was determined as 3.19 ± 0.56 under setting [1] and 3.34 ± 0.37 under setting [2].
The corresponding values for LEISDQEVLEWYTAKDFIVGKSLT [EFHC1] are 3.06 ± 0.22 and 2.92 ± 0.3.
Turning to GEWGGRHPSWPWTRCLRMRPPRS, the protein stability index runs as follows: (treatment: DMSO, c terminus: native) 2.81 ± 0.6; (treatment: MLN4924 1 uM, 8 h, c terminus: native) 2.88 ± 0.36.
Consider RMLSKENKILQVFWEEHKASLGRE [CBY2], for which the protein stability index is 2.96 ± 0.39 under setting [1] and 3.35 ± 0.074 under setting [2].
The corresponding values for PEGPEPAAPGKQPGRGHTHAAQGG [ELOA2] are 5.39 ± 0.27 and 5.51 ± 0.16.
For WKSHLRNVQRPLLQAPFLPPKPPP [RHOBTB2], in that order: 3.03 ± 0.21 and 3.15 ± 0.32.
The corresponding values for GLSVSSRFSSGGACGLGGGYGGGF [KRT16] are 2.2 ± 0.39 and 2.52 ± 0.38.
With ASFRVTTGTSNTTAIKSIEFARKG [RBBP5], the protein stability index amounted to 3.91 ± 0.62 under setting [1] and 3.86 ± 0.23 under setting [2].
For ENEEMEQPMQNGEEDRPLGGGEGH [BEX3], in that order: 5.42 ± 0.15 and 5.41 ± 0.2.
The corresponding values for VAQCLRDLVAMQWADAAGEAVPEG [ZSWIM9] are 2.92 ± 0.33 and 3.06 ± 0.36.
The corresponding values for TGQPLPQSIQQAMRYLRNHCLDQV [DLC1] are 2.36 ± 0.093 and 2.4 ± 0.22.
On to TSLFMTPLDVVKVRLQSQRPSMAS [SLC25A39], for which the protein stability index came out at 2.69 ± 0.34 under setting [1] and 3.02 ± 0.19 under setting [2].
Turning to WRMLRPQLVNSSADNMLEYKSWLK [PPEF2], the protein stability index turned out to be 2.64 ± 0.49 under setting [1] and 2.7 ± 0.39 under setting [2].
The corresponding values for EDGEKAAREVKLLLLGAGESGKST [GNAI1] are 4.78 ± 0.25 and 5.28 ± 0.19.
The corresponding values for SSELETTSFFDSDEDDSTSRFSSS [DVL3] are 5.4 ± 0.32 and 5.51 ± 0.31.
With QGITMGCWDMYRHDIDCQWVDITD [LOXL2], the protein stability index runs as follows: under setting [1], 2.4 ± 0.55; under setting [2], 2.73 ± 0.42.
Take GSFTVRADHGEPIGRGTKVILHLK [HSP90AB1]: the protein stability index is, setting by setting: under setting [1], 2.1 ± 0.3; under setting [2], 2.71 ± 0.3.
For EVPDSYTGPRLSFPLLPDHATALV [PPEF2], in that order: 3.23 ± 0.27 and 3.42 ± 0.28.
The corresponding values for ALEFWRQEELTRINQSFTGAERKA [IQUB] are 3.87 ± 0.52 and 3.73 ± 0.43.
On to LNSVERYDPKTNQWSSDVAPTSTC [KLHL20], for which the protein stability index under setting [1] worked out at 4.18 ± 0.097 and the protein stability index under setting [2] turned out to be 4.24 ± 0.43.
VLNTQGQKTSGQHMIQGAGSLEKA [DLC1] gave a protein stability index under setting [1] of 4.19 ± 0.42 and a protein stability index under setting [2] of 4.23 ± 0.33.
For SLALGDLIYVVIDLPINVFKLLAG [EDNRA], the protein stability index reads like this: under setting [1], 2.59 ± 1; under setting [2], 3.28 ± 0.54.
For PGGDQGGPPVGPLSLGLATVDIQN [WAS], in that order: 4.75 ± 0.22 and 4.71 ± 0.087.
The corresponding values for GSRYDARRGVSDWDLRMKLHDRGA [DNAAF3] are 3.61 ± 0.23 and 3.66 ± 0.42.
The corresponding values for YSSGPQSWYPKANNQDFIPFTKKR [ZC2HC1C] are 3.07 ± 0.54 and 3.68 ± 0.22.
Turning to HRGHCERRHRLGGVGAVPGPGTPT [ZBTB22], the protein stability index is, setting by setting: under setting [1], 4.2 ± 0.26; under setting [2], 4.36 ± 0.16.
On to SLHDGSDGLDGISVGSYLDTLADD [LURAP1L], for which the protein stability index was found to be 5 ± 0.17 under setting [1] and 4.93 ± 0.25 under setting [2].
The corresponding values for CHLCNYACRRRDALTGHLRTHSVI [IKZF1] are 3.06 ± 0.26 and 3.15 ± 0.4.
Consider NNADLCLTDDKQVLNTQGQKTSGQ [DLC1], for which the protein stability index reads like this: under setting [1], 5.18 ± 0.27; under setting [2], 5.16 ± 0.23.
On to FFPQHPNFCEPQDYRPMNHEAFKD [CDC25B], for which the protein stability index worked out at 3.81 ± 0.33 under setting [1] and 4.09 ± 0.21 under setting [2].
For the sequence AAAYTFLQRNPKHELTAKYLNYYQ [P3H4], the protein stability index runs as follows: under setting [1], 2.25 ± 0.23; under setting [2], 2 ± 0.33.
For NRRLQLLEEENKERAKREMVMYSI [MFF], in that order: 3.96 ± 0.19 and 3.6 ± 0.13.
For QLLCPWAPLSGPQALMLPPGSFWG [VENTX], in that order: 2.41 ± 0.62 and 1.73 ± 0.35.
In turn, TEAESEQEGSSGMELSWGQSPGQP [TEX19] gave a protein stability index under setting [1] of 5.43 ± 0.24 and a protein stability index under setting [2] of 5.26 ± 0.25.
For LPLSHIAAQMMDIWVPIKIGALTY [ACSBG2], in that order: 2.79 ± 0.76 and 2.73 ± 0.82.
The corresponding values for VSAIIWEGNECKKMDMSVLEISGI [PHTF1] are 2.11 ± 0.58 and 2.41 ± 0.83.
For HRGPSGHTEASAQRSHMGKLKEPQ, in that order: 5.1 ± 0.38 and 4.87 ± 0.5.
IYAHRVILSACSPYFRAMFTGELA [KLHL20] came in with a protein stability index under setting [1] of 3.16 ± 0.56 and a protein stability index under setting [2] of 2.9 ± 0.65.
On to QFRLKEAFDYIKQRRSMVSPNFGF [DUSP5], for which the protein stability index amounted to 2.19 ± 0.31 under setting [1] and 2.22 ± 0.17 under setting [2].
Consider PEKLIWGDQDPLSKIPFKILSGHE [WDR88], for which the protein stability index reads like this: under setting [1], 3.43 ± 0.85; under setting [2], 3.45 ± 0.44.
The sequence LIVGLQGMDLNLEAEALAGTGLVL [HDAC6] had a protein stability index under setting [1] of 2.91 ± 0.48 and a protein stability index under setting [2] of 2.6 ± 0.62.
The corresponding values for KEENEAESDVKHRTRDYKKTSLAP [PRIM1] are 5.37 ± 0.23 and 5.37 ± 0.41.
The corresponding values for TPINQNVSLHQASLGGCSQDFLLF [NFE2L1] are 1.99 ± 0.55 and 2.6 ± 0.58.
For LLPYFYIIYMAILLTHRCLRDEHR [DHCR7], in that order: 3.25 ± 0.52 and 3.05 ± 0.2.
